The assay addresses A-CooP. As to the kind of experiment: SPR; Biacore T100; A-CooP immobilised on a CM5 chip (FC-4) by amine coupling, scrambled control peptide on the reference flow cell (FC-3); FABP3 as analyte 0.5-32 µM; 25 °C; PBS with 0.05% Tween-20, pH 7.4; steady state affinity fit of reference-subtracted sensorgrams; mean of three experiments.

For “recombinant N-terminal His6-tagged human FABP3 (natural protein)”, the Kd (commonly the constant that tells how readily two partners part at equilibrium) is 16.7 µM.

These data come from paper PMC7409020, “Tumor-Targeting Peptides: The Functional Screen of Glioblastoma Homing Peptides to the Target Protein FABP3 (MDGI)” (Cancers, 2020).
